One block for each substance: values may come before it.
Experiments:
[1] = biological target: human CD3e (T-cell surface glycoprotein CD3 epsilon chain) (human) (UniProt P07766); experiment: flow cytometry, human PBMC, negative control of unstated make-up
[2] = biological target: monkey CD3e (Macaca fascicularis) on PBMC (Macaca fascicularis) (UniProt Q95LI5); experiment: flow cytometry, Macaca fascicularis PBMC, negative control of unstated make-up
[3] = biological target: monkey CD3e (Macaca fascicularis) on PBMC (Macaca fascicularis) (UniProt Q95LI5); experiment: flow cytometry, Macaca fascicularis PBMC, control sample (Table 2: 1:400), AF647-anti-hIgG
[4] = biological target: human CD3e (T-cell surface glycoprotein CD3 epsilon chain) (human) (UniProt P07766); experiment: flow cytometry, human PBMC of subject 2 (PBMC human2#), negative control, AF647-anti-mIgG, PerCP anti-hTcRβ
[5] = biological target: monkey CD3e (Macaca fascicularis) on PBMC (Macaca fascicularis) (UniProt Q95LI5); experiment: flow cytometry, Macaca fascicularis PBMC, control sample (Table 2: 1:400), AF647-anti-mIgG
[6] = biological target: human CD3e (T-cell surface glycoprotein CD3 epsilon chain) (human) (UniProt P07766); experiment: flow cytometry, human PBMC of subject 1 (PBMC human1#), negative control, AF647-anti-mIgG, PerCP anti-hTcRβ

monkey CD3e (Macaca fascicularis) on PBMC (Macaca fascicularis), sequence (Q95LI5 22-198 limits assumed): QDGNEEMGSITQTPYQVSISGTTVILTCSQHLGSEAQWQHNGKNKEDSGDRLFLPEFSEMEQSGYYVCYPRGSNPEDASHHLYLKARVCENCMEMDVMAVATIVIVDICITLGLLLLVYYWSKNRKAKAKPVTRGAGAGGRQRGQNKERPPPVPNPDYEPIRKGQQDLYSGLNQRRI

upper left quadrant, percent of cells AF647+ / hTcRβ-PerCP- [1]: 0.24%
upper left quadrant, percent of cells AF647+ / hTcRβ-PerCP- [2]: 0.162%
Substance: NC

FL4-H, SSC-H subset (percent of cells in the AF647-positive gate) [3]: 3.27%
Substance: hIgG (antibody)

Q1, percent of cells AF647+ / hTcRβ-PerCP- [4]: 0.0036%
Q2, percent of cells AF647+ / hTcRβ-PerCP+ [4]: 0.21%
FL4-H, SSC-H subset (percent of cells in the AF647-positive gate) [5]: 0.58%
Q1, percent of cells AF647+ / hTcRβ-PerCP- [6]: 0.00361%
Q2, percent of cells AF647+ / hTcRβ-PerCP+ [6]: 0.19%
Substance: mIgG (antibody)
